Data reported in patent publication US20220267410A1 (UNIVERSITAT STUTTGART, published 2022).
Residue numbers refer to the chain shown, from its start.

Assays:
[1] = target: T1, TNFR2 on Kym-1 cells (UniProt P20333 23-461, limits assumed); experiment: cell-based or functional assay
T1 sequence (looked up): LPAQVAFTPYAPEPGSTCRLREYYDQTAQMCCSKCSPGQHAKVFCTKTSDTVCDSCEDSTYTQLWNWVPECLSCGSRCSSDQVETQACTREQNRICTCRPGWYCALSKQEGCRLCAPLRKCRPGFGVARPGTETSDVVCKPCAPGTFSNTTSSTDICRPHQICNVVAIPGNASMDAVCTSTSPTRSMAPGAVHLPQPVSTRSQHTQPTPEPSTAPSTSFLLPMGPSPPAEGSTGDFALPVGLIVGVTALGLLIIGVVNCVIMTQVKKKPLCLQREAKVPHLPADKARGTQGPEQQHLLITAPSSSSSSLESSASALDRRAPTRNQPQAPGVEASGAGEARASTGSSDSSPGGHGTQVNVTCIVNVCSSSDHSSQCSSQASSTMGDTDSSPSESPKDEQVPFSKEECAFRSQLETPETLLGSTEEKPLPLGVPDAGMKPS

[2] = target: T2, human TNFR2-Fc (etanercept) (human, UniProt P20333 23-257); experiment: ELISA on coated etanercept
T2 construct: Commercial drug coated on ELISA plates (200 ng/well); also called immobilized TNF-R2; not shown: Fc part of etanercept
T2 sequence (looked up): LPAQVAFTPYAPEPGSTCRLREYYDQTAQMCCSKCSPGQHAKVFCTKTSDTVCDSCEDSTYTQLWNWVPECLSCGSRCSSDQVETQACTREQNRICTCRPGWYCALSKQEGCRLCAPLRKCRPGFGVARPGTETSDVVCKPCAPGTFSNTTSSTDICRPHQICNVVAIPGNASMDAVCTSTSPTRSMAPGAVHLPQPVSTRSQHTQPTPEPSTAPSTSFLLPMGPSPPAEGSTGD
Method: The binding of scTNFR2 and the scTNFR2-Fc(Δab) proteins to human TNFR2-Fc (etanercept) was analyzed by ELISA. 96-well ELISA plates were coated with 200 ng/well etanercept in coating buffer (0.1 M sodium carbonate, pH 9.5) overnight at 4° C., blocked with 2% skim milk in PBS (MPBS) and washed with washing buffer PBST (PBS, 0.05 Tween 20). ScTNFR2 and scTNFR2-Fc(Δab) proteins were titrated in duplicates and incubated on the plates for 2 h at room temperature, followed by washing with PBST. Receptor-bound complexes were detected with mouse anti-huTNFα F6C5 (Novus, 1 μg/ml) and goat anti-mouse IgG(Fc)-HRP (Sigma-Aldrich, 1:10,000), followed by extensive washing with PBST each, before incubation with HRP substrate.

B1: 6xHis-scTNFR2 143 (ligand)
chain: MCGSHHHHHHSGIPASDKPVAHVVANPQAEGQLQWLNRRANALLANGVELRDNQLVVPSEGLYLIYSQVLFKGQGCPSTHVLLTHTISRIAVSYQTKVNLLSAIKSPCQRETPEGAEAKPWYEPIYLGGVFQLEKGDRLSAEINRPDYLNFRESGQVYFGIIALGGGPSDKPVAHVVANPQAEGQLQWLNRRANALLANGVELRDNQLVVPSEGLYLIYSQVLFKGQGCPSTHVLLTHTISRIAVSYQTKVNLLSAIKSPCQRETPEGAEAKPWYEPIYLGGVFQLEKGDRLSAEINRPDYLNFRESGQVYFGIIALGGGPSDKPVAHVVANPQAEGQLQWLNRRANALLANGVELRDNQLVVPSEGLYLIYSQVLFKGQGCPSTHVLLTHTISRIAVSYQTKVNLLSAIKSPCQRETPEGAEAKPWYEPIYLGGVFQLEKGDRLSAEINRPDYLNFRESGQVYFGIIAL
notes: Expressed with Igκ leader and N-terminal 6xHis tag; also called variant 143
EC50 of bioactivity on Kym-1 with 80M2 (cell death, crystal violet) [1]: 11.9 pM | EC50 [2]: 670 pM

B2: 6xHis-scTNFR2 146 (ligand)
chain: MCGSHHHHHHSGIPASDKPVAHVVANPQAEGQLQWLNRRANALLANGVELRDNQLVVPSEGLYLIYSQVLFKGQGCPSTHVLLTHTISRIAVSYQTKVNLLSAIKSPCQRETPEGAEAKPWYEPIYLGGVFQLEKGDRLSAEINRPDYLNFRESGQVYFGIIALGGGTPSDKPVAHVVANPQAEGQLQWLNRRANALLANGVELRDNQLVVPSEGLYLIYSQVLFKGQGCPSTHVLLTHTISRIAVSYQTKVNLLSAIKSPCQRETPEGAEAKPWYEPIYLGGVFQLEKGDRLSAEINRPDYLNFRESGQVYFGIIALGGGTPSDKPVAHVVANPQAEGQLQWLNRRANALLANGVELRDNQLVVPSEGLYLIYSQVLFKGQGCPSTHVLLTHTISRIAVSYQTKVNLLSAIKSPCQRETPEGAEAKPWYEPIYLGGVFQLEKGDRLSAEINRPDYLNFRESGQVYFGIIAL
notes: Expressed with Igκ leader and N-terminal 6xHis tag; also called variant 146
EC50 of bioactivity on Kym-1 with 80M2 (cell death, crystal violet) [1]: 6.55 pM | EC50 [2]: 710 pM

B3: 6xHis-scTNFR2 147 (ligand)
chain: B2 chain with T168G, T322G
notes: Expressed with Igκ leader and N-terminal 6xHis tag; also called variant 147
EC50 of bioactivity on Kym-1 with 80M2 (cell death, crystal violet) [1]: 8.58 pM | EC50 [2]: 760 pM
